Source: PMC10228819, “Changing course: Glucose starvation drives nuclear accumulation of Hexokinase 2 in S. cerevisiae” (PLOS Genetics, 2023)

What was measured:
[1] = molecular target: Hxk2 (hexokinase 2, ScHxk2) (UniProt P04807); test: size exclusion chromatography; details: reference: wild type Hxk2, no glucose; sites S15
[2] = molecular target: the molecule itself; test: SEC; TOSOH G2000 SWXL column on HPLC; 40 μg protein in 50 μl; hexokinase buffer (20 mM HEPES, 5 mM Mg acetate, 100 mM NaCl, 0.5 mM EDTA, 0.5 mM DTT) without glucose, no ATP; 1 mL/min

other: SEC elution volume [1] | Molecule | stoichiometry N [2]
lost; reference ~8.8 | Hxk2 (hexokinase 2, ScHxk2) (from UniProt P04807) Hxk2 S15D, no glucose | –
– | Recombinant Hxk2, wild type, with C-terminal 6-histidine tag (enzyme, S. cerevisiae, Hexokinase 2 (Hxk2), S. cerevisiae, cloned into pET14b; also called WT Hxk2; purified Hxk2; source: E. coli, purified (Ni-NTA)) MVHLGPKKPQARKGSMADVPKELMQQIENFEKIFTVPTETLQAVTKHFISELEKGLSKKGGNIPMIPGWVMDFPTGKESGDFLAIDLGGTNLRVVLVKLGGDRTFDTTQSKYRLPDAMRTTQNPDELWEFIADSLKAFIDEQFPQGISEPIPLGFTFSFPASQNKINEGILQRWTKGFDIPNIENHDVVPMLQKQITKRNIPIEVVALINDTTGTLVASYYTDPETKMGVIFGTGVNGAYYDVCSDIEKLQGKLSDDIPPSAPMAINCEYGSFDNEHVVLPRTKYDITIDEESPRPGQQTFEKMSSGYYLGEILRLALMDMYKQGFIFKNQDLSKFDKPFVMDTSYPARIEEDPFENLEDTDDLFQNEFGINTTVQERKLIRRLSELIGARAARLSVCGIAAICQKRGYKTGHIAADGSVYNRYPGFKEKAANALKDIYGWTQTSLDDYPIKIVPAEDGSGAGAAVIAALAQKRIAEGKSVGIIGA | 2
